What was measured:
Assay in all cases: high-throughput RNA pulldown from lysate on Ni-NTA beads; HRP: 50 mM Tris pH 8, 150 mM NaCl, 1 mM beta-mercaptoethanol, 50 ug/ml BSA, 3 ug/ml yeast RNA, 0.5% heparin; ITC and FP: Tris pH 8, 200 mM KCl, 5% glycerol; MST: 50 mM Tris pH 8, 200 mM NaCl, 1 mM DTT, BSA, heparin, 0.05% Tween 20
Settings in all cases: tags: N-terminal His-eGFP
[1] = molecular target: T1, GFP-9S library array, motif 4 ND N98I;D124P (synthetic construct, N98I;D124P)
T1 chain: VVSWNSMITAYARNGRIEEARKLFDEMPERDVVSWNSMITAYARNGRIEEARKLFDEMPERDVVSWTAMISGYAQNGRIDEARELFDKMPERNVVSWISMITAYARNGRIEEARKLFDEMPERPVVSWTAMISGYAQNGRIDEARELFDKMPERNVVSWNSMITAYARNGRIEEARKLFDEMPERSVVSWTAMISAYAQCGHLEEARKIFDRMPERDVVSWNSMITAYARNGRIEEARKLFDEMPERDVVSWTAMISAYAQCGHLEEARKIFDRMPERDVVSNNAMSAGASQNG

[2] = molecular target: T2, GFP-9S library array, motif 4 ND N98D;D124W (synthetic construct, N98D;D124W)
T2 chain: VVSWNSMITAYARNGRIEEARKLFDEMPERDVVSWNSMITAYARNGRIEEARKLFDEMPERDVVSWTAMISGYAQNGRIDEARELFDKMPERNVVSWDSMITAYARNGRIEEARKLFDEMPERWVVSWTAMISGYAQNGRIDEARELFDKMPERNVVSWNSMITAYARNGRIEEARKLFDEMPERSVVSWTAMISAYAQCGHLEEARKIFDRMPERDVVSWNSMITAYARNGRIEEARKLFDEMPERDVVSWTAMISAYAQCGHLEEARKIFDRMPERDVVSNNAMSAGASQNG

[3] = molecular target: T3, GFP-9S library array, motif 4 ND N98W;D124S (synthetic construct, N98W;D124S)
T3 chain: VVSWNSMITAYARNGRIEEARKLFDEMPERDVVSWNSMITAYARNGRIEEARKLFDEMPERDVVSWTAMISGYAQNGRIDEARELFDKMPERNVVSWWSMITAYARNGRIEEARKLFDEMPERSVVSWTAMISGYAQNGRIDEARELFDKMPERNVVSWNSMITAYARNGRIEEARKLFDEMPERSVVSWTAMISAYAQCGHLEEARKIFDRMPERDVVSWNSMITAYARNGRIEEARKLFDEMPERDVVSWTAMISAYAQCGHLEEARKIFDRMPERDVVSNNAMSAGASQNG

[4] = molecular target: T4, GFP-9S library array, motif 4 ND N98W;D124K (synthetic construct, N98W;D124K)
T4 chain: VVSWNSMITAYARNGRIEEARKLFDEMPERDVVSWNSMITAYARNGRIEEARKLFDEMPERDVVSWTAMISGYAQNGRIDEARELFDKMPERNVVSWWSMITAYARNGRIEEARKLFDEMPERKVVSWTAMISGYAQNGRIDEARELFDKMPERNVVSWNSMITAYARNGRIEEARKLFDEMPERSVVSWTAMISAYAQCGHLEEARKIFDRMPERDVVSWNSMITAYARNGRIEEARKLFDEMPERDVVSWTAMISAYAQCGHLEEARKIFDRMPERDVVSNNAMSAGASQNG

[5] = molecular target: T5, GFP-9S library array, motif 4 ND N98E;D124K (synthetic construct, N98E;D124K)
T5 chain: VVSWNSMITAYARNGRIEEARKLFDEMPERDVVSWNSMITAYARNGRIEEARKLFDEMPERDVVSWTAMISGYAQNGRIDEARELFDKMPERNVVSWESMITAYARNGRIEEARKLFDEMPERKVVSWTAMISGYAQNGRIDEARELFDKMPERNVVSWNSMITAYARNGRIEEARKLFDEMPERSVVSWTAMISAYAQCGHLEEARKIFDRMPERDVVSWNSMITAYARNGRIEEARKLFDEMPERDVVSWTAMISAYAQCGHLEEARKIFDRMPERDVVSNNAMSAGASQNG

Row | Binder | Kd ([1]; label: 5' Cy5) [nM] | Kd ([2]; label: 5' Cy5) [nM] | Kd ([3]; label: 5' Cy5) [nM] | Kd ([4]; label: 5' Cy5) [nM] | Kd ([5]; label: 5' Cy5) [nM] | Kd ([1]; label: 5' IRDye 800CW) [nM] | Kd ([2]; label: 5' IRDye 800CW) [nM] | Kd ([3]; label: 5' IRDye 800CW) [nM] | Kd ([4]; label: 5' IRDye 800CW) [nM] | Kd ([5]; label: 5' IRDye 800CW) [nM]
1 | AUUACACGUGA (ssRNA) [Cy5-rpoA] | 132 | 134 | 89.2 | 72.6 | 124 |  |  |  |  | 
2 | AUUAGACGUGA (ssRNA) [Cy5-rpoA-G] | 112 | 178 | 79.8 | 48.1 | 155 |  |  |  |  | 
3 | AUUAAACGUGA (ssRNA) [IR-rpoA-A] |  |  |  |  |  | 266 | 572 | 247 | 177 | 312
4 | AUUAUACGUGA (ssRNA) [IR-rpoA-U] |  |  |  |  |  | 269 | 202 | 263 | 154 | 267
